Source: the supplement of paper PMC9112550, “Optimization of the antimicrobial peptide Bac7 by deep mutational scanning” (BMC Biology, 2022)

tested on: Escherichia coli TOP10; assay: shrunken log2 fold change of peptide-encoding DNA abundance (4.5 h post-induction vs induction); higher = less antimicrobial activity (less host growth inhibition); details: time post-induction: 4.5 h; library: site-saturation at positions 5, 18, 19, 20
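Further: peptides expressed intracellularly from a pBAD plasmid library in pooled LB shake-flask culture, induced with 0.3% L-arabinose, DNA abundance read by NGS, three biological replicates, DESeq2 with apeglm shrinkage.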

Row | Sequence | shrunken log2 fold change
1 | RRIRPRPPRLPRPRPRPKPAPRP | 0.157
2 | RRIRPRPPRLPRPRPRPKRKPRP | 0.238
3 | RRIRPRPPRLPRPRPRPKSAPRP | 0.532
4 | RRIRPRPPRLPRPRPRPKTVPRP | -0.171
5 | RRIRPRPPRLPRPRPRPKTYPRP | -0.451
6 | RRIRPRPPRLPRPRPRPKWEPRP | -0.0741
7 | RRIRPRPPRLPRPRPRPKWNPRP | -0.0477
8 | RRIRPRPPRLPRPRPRPKWRPRP | 0.0676
9 | RRIRPRPPRLPRPRPRPLDFPRP | -0.116
10 | RRIRPRPPRLPRPRPRPLDVPRP | -0.146
11 | RRIRPRPPRLPRPRPRPLDWPRP | 0.349
12 | RRIRPRPPRLPRPRPRPLFDPRP | 0.0231
13 | RRIRPRPPRLPRPRPRPLHFPRP | -0.207
14 | RRIRPRPPRLPRPRPRPLIAPRP | 0.113
15 | RRIRPRPPRLPRPRPRPLIDPRP | -0.0112
16 | RRIRPRPPRLPRPRPRPLKPPRP | 0.0408
17 | RRIRPRPPRLPRPRPRPLMDPRP | -0.145
18 | RRIRPRPPRLPRPRPRPLMFPRP | -0.138
19 | RRIRPRPPRLPRPRPRPLNQPRP | -0.217
20 | RRIRPRPPRLPRPRPRPLNTPRP | -0.482
21 | RRIRPRPPRLPRPRPRPLNVPRP | -0.448
22 | RRIRPRPPRLPRPRPRPLPKPRP | 0.216

Row | Sequence | shrunken log2 fold change
23 | RRIRPRPPRLPRPRPRPLQAPRP | 0.496
24 | RRIRPRPPRLPRPRPRPLQSPRP | 0.0308
25 | RRIRPRPPRLPRPRPRPLRQPRP | 0.0954
26 | RRIRPRPPRLPRPRPRPLRWPRP | 0.588
27 | RRIRPRPPRLPRPRPRPLTVPRP | -0.126
28 | RRIRPRPPRLPRPRPRPLVFPRP | 0.257
29 | RRIRPRPPRLPRPRPRPLVHPRP | -0.00919
30 | RRIRPRPPRLPRPRPRPLVLPRP | 0.0114
31 | RRIRPRPPRLPRPRPRPLWCPRP | -0.158
32 | RRIRPRPPRLPRPRPRPLWEPRP | 0.0604
33 | RRIRPRPPRLPRPRPRPLYAPRP | 0.0267
34 | RRIRPRPPRLPRPRPRPLYHPRP | -0.514
35 | RRIRPRPPRLPRPRPRPLYIPRP | -0.227
36 | RRIRPRPPRLPRPRPRPLYNPRP | -0.623
37 | RRIRPRPPRLPRPRPRPMASPRP | 0.011
38 | RRIRPRPPRLPRPRPRPMEMPRP | -0.0174
39 | RRIRPRPPRLPRPRPRPMESPRP | 0.0152
40 | RRIRPRPPRLPRPRPRPMFHPRP | -0.289
41 | RRIRPRPPRLPRPRPRPMFKPRP | -0.0861
42 | RRIRPRPPRLPRPRPRPMFTPRP | -0.178
43 | RRIRPRPPRLPRPRPRPMGKPRP | -0.0536
44 | RRIRPRPPRLPRPRPRPMGLPRP | 0.0513

Row | Sequence | shrunken log2 fold change
45 | RRIRPRPPRLPRPRPRPMGMPRP | 0.0285
46 | RRIRPRPPRLPRPRPRPMGVPRP | 0.0399
47 | RRIRPRPPRLPRPRPRPMIGPRP | 0.00964
48 | RRIRPRPPRLPRPRPRPMISPRP | -0.098
49 | RRIRPRPPRLPRPRPRPMKKPRP | -0.0723
50 | RRIRPRPPRLPRPRPRPMLTPRP | -0.333
51 | RRIRPRPPRLPRPRPRPMLWPRP | 0.172
52 | RRIRPRPPRLPRPRPRPMMSPRP | 0.081
53 | RRIRPRPPRLPRPRPRPMMYPRP | -0.198
54 | RRIRPRPPRLPRPRPRPMPAPRP | 0.0935
55 | RRIRPRPPRLPRPRPRPMPCPRP | 0.0941
56 | RRIRPRPPRLPRPRPRPMPKPRP | 0.409
57 | RRIRPRPPRLPRPRPRPMQHPRP | -0.0486
58 | RRIRPRPPRLPRPRPRPMQLPRP | 0.406
59 | RRIRPRPPRLPRPRPRPMRLPRP | 0.0536
60 | RRIRPRPPRLPRPRPRPMSDPRP | -0.195
61 | RRIRPRPPRLPRPRPRPMSIPRP | -0.211
62 | RRIRPRPPRLPRPRPRPMSWPRP | 0.245
63 | RRIRPRPPRLPRPRPRPMTFPRP | -0.0264
64 | RRIRPRPPRLPRPRPRPMVGPRP | 0.265
65 | RRIRPRPPRLPRPRPRPMVPPRP | 0.18
66 | RRIRPRPPRLPRPRPRPMWCPRP | -0.0757

Row | Sequence | shrunken log2 fold change
67 | RRIRPRPPRLPRPRPRPNARPRP | 0.677
68 | RRIRPRPPRLPRPRPRPNCKPRP | -0.048
69 | RRIRPRPPRLPRPRPRPNCNPRP | -0.518
70 | RRIRPRPPRLPRPRPRPNCWPRP | 1.74
71 | RRIRPRPPRLPRPRPRPNDIPRP | -0.632
72 | RRIRPRPPRLPRPRPRPNDKPRP | -0.52
73 | RRIRPRPPRLPRPRPRPNDMPRP | -0.208
74 | RRIRPRPPRLPRPRPRPNEFPRP | -0.0949
75 | RRIRPRPPRLPRPRPRPNEIPRP | -0.139
76 | RRIRPRPPRLPRPRPRPNELPRP | -0.313
77 | RRIRPRPPRLPRPRPRPNEMPRP | 0.0125
78 | RRIRPRPPRLPRPRPRPNHYPRP | -0.576
79 | RRIRPRPPRLPRPRPRPNIEPRP | -0.294
80 | RRIRPRPPRLPRPRPRPNLMPRP | -0.0727
81 | RRIRPRPPRLPRPRPRPNLSPRP | -0.168
82 | RRIRPRPPRLPRPRPRPNLYPRP | -0.276
83 | RRIRPRPPRLPRPRPRPNMAPRP | 0.478
84 | RRIRPRPPRLPRPRPRPNPGPRP | 0.0588
85 | RRIRPRPPRLPRPRPRPNPLPRP | 0.149
86 | RRIRPRPPRLPRPRPRPNQFPRP | -0.204
87 | RRIRPRPPRLPRPRPRPNREPRP | 0.026
88 | RRIRPRPPRLPRPRPRPNSTPRP | -0.23

Row | Sequence | shrunken log2 fold change
89 | RRIRPRPPRLPRPRPRPNSVPRP | -0.174
90 | RRIRPRPPRLPRPRPRPNTQPRP | -0.159
91 | RRIRPRPPRLPRPRPRPNVHPRP | -0.44
92 | RRIRPRPPRLPRPRPRPNVQPRP | 0.0803
93 | RRIRPRPPRLPRPRPRPNWMPRP | 0.0917
94 | RRIRPRPPRLPRPRPRPNWTPRP | 0.218
95 | RRIRPRPPRLPRPRPRPPCEPRP | 0.522
96 | RRIRPRPPRLPRPRPRPPCTPRP | 0.00476
97 | RRIRPRPPRLPRPRPRPPDRPRP | 0.583
98 | RRIRPRPPRLPRPRPRPPEKPRP | 0.544
99 | RRIRPRPPRLPRPRPRPPFNPRP | -0.126
100 | RRIRPRPPRLPRPRPRPPGVPRP | 0.517
101 | RRIRPRPPRLPRPRPRPPIMPRP | -0.0982
102 | RRIRPRPPRLPRPRPRPPKDPRP | 0.225
103 | RRIRPRPPRLPRPRPRPPLDPRP | 0.517
104 | RRIRPRPPRLPRPRPRPPLYPRP | 0.217
105 | RRIRPRPPRLPRPRPRPPMNPRP | -0.036
106 | RRIRPRPPRLPRPRPRPPNPPRP | 0.453
107 | RRIRPRPPRLPRPRPRPPNVPRP | -0.0451
108 | RRIRPRPPRLPRPRPRPPNWPRP | 0.534
109 | RRIRPRPPRLPRPRPRPPPVPRP | 0.744
